T1: recombinant mouse IL22R1 (mouse IL22R ECD) (mouse) (UniProt Q80XZ4)
T1 sequence (biotinylated in the ELISA of Table 4, looked up): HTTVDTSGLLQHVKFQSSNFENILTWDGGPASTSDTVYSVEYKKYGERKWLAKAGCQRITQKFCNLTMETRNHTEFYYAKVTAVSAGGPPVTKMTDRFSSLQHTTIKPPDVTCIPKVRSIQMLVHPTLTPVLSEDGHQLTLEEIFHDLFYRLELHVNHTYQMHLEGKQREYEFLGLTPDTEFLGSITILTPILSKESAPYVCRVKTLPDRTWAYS

T2: recombinant human IL22R1 (human IL22R ECD) (human) (UniProt Q8N6P7)
T2 sequence (biotinylated in the ELISA of Table 4, looked up): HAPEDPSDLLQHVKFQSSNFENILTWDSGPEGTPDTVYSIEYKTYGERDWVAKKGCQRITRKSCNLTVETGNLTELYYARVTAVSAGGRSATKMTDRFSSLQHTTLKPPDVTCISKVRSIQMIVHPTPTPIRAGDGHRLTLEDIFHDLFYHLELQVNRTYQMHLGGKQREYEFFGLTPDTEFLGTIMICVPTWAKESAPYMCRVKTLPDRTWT

T3: rhesus IL22R ECD (rhesus) (UniProt G7MHN4)
T3 sequence (chain, biotinylated): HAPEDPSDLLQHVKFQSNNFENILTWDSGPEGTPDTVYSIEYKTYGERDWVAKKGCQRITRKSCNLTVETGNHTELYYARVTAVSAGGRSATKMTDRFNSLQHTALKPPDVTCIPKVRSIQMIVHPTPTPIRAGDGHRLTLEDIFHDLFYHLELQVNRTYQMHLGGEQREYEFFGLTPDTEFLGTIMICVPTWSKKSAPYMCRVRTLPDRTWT


Experiments:
[1] = target: T1, recombinant mouse IL22R1 (mouse IL22R ECD) (mouse); test: ELISA, mAb coated at 100 ng/ml, biotinylated mouse IL22R ECD at 2 ng/ml, streptavidin-HRP
[2] = target: T1, recombinant mouse IL22R1 (mouse IL22R ECD) (mouse); test: Biacore, immobilized mouse IL22R ECD
[3] = target: T2, recombinant human IL22R1 (human IL22R ECD) (human); test: Biacore, immobilized human IL22R ECD
[4] = target: T3, rhesus IL22R ECD (rhesus); test: ELISA, mAb coated at 100 ng/ml, biotinylated rhesus IL22R ECD at 100 ng/ml, streptavidin-HRP
[5] = target: cyno IL22R ECD (cyno); test: ELISA, mAb coated at 100 ng/ml, biotinylated cyno IL22R ECD at 100 ng/ml, streptavidin-HRP
[6] = target: T1, recombinant mouse IL22R1 (mouse IL22R ECD) (mouse); test: ELISA, mAb coated at 100 ng/ml, biotinylated mouse IL22R ECD at 100 ng/ml, streptavidin-HRP
[7] = target: T2, recombinant human IL22R1 (human IL22R ECD) (human); test: ELISA, mAb coated at 100 ng/ml, biotinylated human IL22R ECD at 100 ng/ml, streptavidin-HRP
[8] = target: cyno IL22R ECD (cyno); test: ELISA, mAb coated at 100 ng/ml, biotinylated cyno IL22R ECD at 2 ng/ml, streptavidin-HRP
[9] = target: T2, recombinant human IL22R1 (human IL22R ECD) (human); test: ELISA, mAb coated at 100 ng/ml, biotinylated human IL22R ECD at 2 ng/ml, streptavidin-HRP
[10] = target: T3, rhesus IL22R ECD (rhesus); test: ELISA, mAb coated at 100 ng/ml, biotinylated rhesus IL22R ECD at 2 ng/ml, streptavidin-HRP

Absorption at 620 nm (relative absorption units) [1] | Kd [2] [nM] | koff [2] [s⁻¹] | kon [2] [M⁻¹ s⁻¹] | Kd [3] [nM] | koff [3] [s⁻¹] | kon [3] [M⁻¹ s⁻¹] | Absorption at 620 nm (relative absorption units) [4] | Absorption at 620 nm (relative absorption units) [5] | Absorption at 620 nm (relative absorption units) [6] | Absorption at 620 nm (relative absorption units) [7] | Absorption at 620 nm (relative absorption units) [8] | Absorption at 620 nm (relative absorption units) [9] | Absorption at 620 nm (relative absorption units) [10] | Binder
0.172 | 0.007 | 1e-06 | 150000 | 0.0019 | 3.1e-07 | 160000 | 2.77 | 2.66 | 2.36 | 2.93 | 1.36 | 1 | 1.17 | 205A5 (antibody, part only; not given: parental light chain variable domain, V domains shown, part only) VH: QVQLVESGGGLVQPGGSLRLSCAASGFTFNSYEMYWVRQAPGKGLEWVSGITADGGYTYYADSVKGRFTMSRDNAKNTLYLQMNSLKPEDTALYYCANLWNDYWGQGTQVIVSS
1.86 | 1.8 | 0.00048 | 260000 | 0.42 | 0.00028 | 670000 | 2.59 | 2.18 | 2.36 | 2.57 | – | 1.03 | 1.97 | 205A9 (antibody, part only; not given: parental heavy chain variable domain, V domains shown, part only) VL: HSAVTQPSAVSVSLGQTARITCQGGNFGSYYASWYQQKPGQAPVLVIYDDDRRPSGIPERFSGSSSGGRSTLTISGAQSGDEGDYYCQSADLSGNPVFGGGTHLTVL
